B1: X0005-H01: germlined IgG counterpart of M0064-E04 in Table 6 (antibody, V domains shown)
VH: EVQLLESGGGLVQPGGSLRLSCAASGFTFSVYDMNWVRQAPGKGLEWVSSISSSGGGTLYADSVKGRFTISRDNSKNTLYLQMNSLRAEDTAVYYCARDSDTSSYYWYYDLWGRGTLVTVSS
VL: DIQMTQSPSSLSASVGDRVTITCQASHDISNYLNWYQQKPGKAPKLLIYAASRLQSGVPSRFSGSGSGTDFTLTISSLQPEDFATYYCQQSYSFPRTFGQGTRLEIK
B2: M0068-E03: human anti-IGF-II/IGF-IIE Fab from phage display library (protein)
light: QDIQMTQSPSSLSASVGDRVTITCRASQSINTYLNWYQQKPGKAPKVLIHAASTLESGVPSRFSGSGSATEFTLTISSLQPEDFATFYCQQSYSVPFTFGPGTRLSSKRTVAAPSVFIFPPSDEQLKSGTASVVCLLNNFYPREAKVQWKVDNALQSGNSQESVTEQDSKDSTYSLSSTLTLSKADYEKHKVYACEVTHQGLSSPVTKSFNRGEC
heavy: EVQLLESGGGLVQPGGSLRLSCAASGFTFSEYVMAWVRQAPGKGLEWVSSIVSSGGYTKYADSVKGRFTISRDNSKNTLYLQMNSLRAEDTAVYYCAKDMTYSGDAFDVWGQGTMVTVSSASTKGPSVFPLAPSSKSTSGGTAALGCLVKDYFPEPVTVSWNSGALTSGVHTFPAVLQSSGLYSLSSVVTVPSSSLGTQTYICNVNHKPSNTKVDKKVEPKSCAAAHHHHHHGAAEQKLISEEDLNGAAEASSASNA

How the values were obtained:
IGF-IIE [1] = biological target: T1, IGF-IIE (Homo sapiens, UniProt P01344); assay: Affinity measurements of IgGs by SPR (BIACORE), IGF-IIE; assay type: binding; conditions: IgG
T1 construct: the construct comprising amino acids 1-104, which encompass the E domain

IGF-IIE [2] = biological target: T1, IGF-IIE; assay: IGF-IIE stimulated Ba/F3 cell proliferation, sFabs (MTS assay); assay type: cell-based; conditions: 72 h
Protocol: (§1) Ba/F3 cells were cultured in complete medium (90% RPMI 1640+10% FBS+10 ng/ml IL-3+2 mM L-Alanyl-Glutamine+1×Pen/Strep). Cells at passage 6 to 15 were used for the high throughput cell proliferation assay. IGF-II (67aa), IGF-IIE (104aa) were at 10 μg/ml in PBS, kept at −70° C. IL-4 was purchased from R&D system, Cat#: 404-ML, and anti-IGF-II antibody was purchased from R&D system, Cat#: MAB292. 34 sFabs from batch 1 and batch 2 in a median scale purification, all in PBS, were screened.
(§2) IGF-II was prepared at concentration of 400 ng/ml; IGF-IIE at 800 ng/ml; sFab at 200 μg/ml in PBS. 25 μl of IGF-II or IGF-IIE was preincubated with 25 μl of sFab in 96-well plate, triplicate for each sFab, 30 min at room temperature in a total volume of 50 μl/well. […]
(§3) The MTS assay was performed as follows: • Add 20 μl of CellTiter 96 Aqueous One Solution Reagent to each well • Incubate at 37° C., 5% CO2 for additional 4 h. • Read plate for absorbance at a microplate spectrophotometer at wavelength 490 nm. […]
(§4) MTS Assay: • Add 20 μl of CellTiter 96 Aqueous One Solution Reagent to each well • Incubate at 37° C., 5% CO2 for additional 4 h. • Read plate for absorbance at a microplate spectrophotometer at wavelength 490 nm.

IGF-II = biological target: T2, IGF-II (Homo sapiens, UniProt P01344); assay: IGF-II stimulated Ba/F3 cell proliferation, sFabs (MTS assay); assay type: cell-based; conditions: 72 h
T2 construct: IGF-II (amino acids 1-67)
Protocol: as §1, §2, §3, §4

T1 sequence (P01344 25-128): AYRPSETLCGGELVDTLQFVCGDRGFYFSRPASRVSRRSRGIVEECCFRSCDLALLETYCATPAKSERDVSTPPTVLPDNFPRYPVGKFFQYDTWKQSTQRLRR
T2 sequence (P01344 25-91): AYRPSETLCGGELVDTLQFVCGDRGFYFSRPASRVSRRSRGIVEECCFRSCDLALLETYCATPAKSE

Molecule	Kd (IGF-IIE [1]) [nM]	inhibitory effect on IGF-IIE stimulated Ba/F3 cell proliferation (screening) (IGF-IIE [2]; sFab 50 μg/ml (1 μM), MTS)	inhibitory effect on IGF-IIE stimulated Ba/F3 cell proliferation (dose response, in words) (IGF-IIE [2]; sFab 50 μg/ml down to 0)	inhibitory effect on IGF-II stimulated Ba/F3 cell proliferation (screening) (IGF-II; sFab 50 μg/ml (1 μM), MTS)	inhibitory effect on IGF-II stimulated Ba/F3 cell proliferation (dose response, in words) (IGF-II; sFab 50 μg/ml down to 0)
B1	0.26				
B2		significant inhibitory effect	significant inhibitory effect	significant inhibitory effect	significant inhibitory effect

Source: patent US20110165145A1, “IGF-II/IGF-IIE BINDING PROTEINS” (priority 2008, published 2011)
